The assay concerns the target T1, MBP-HS1BP3 full length (UniProt Q53T59 1-392).
T1 sequence (looked up): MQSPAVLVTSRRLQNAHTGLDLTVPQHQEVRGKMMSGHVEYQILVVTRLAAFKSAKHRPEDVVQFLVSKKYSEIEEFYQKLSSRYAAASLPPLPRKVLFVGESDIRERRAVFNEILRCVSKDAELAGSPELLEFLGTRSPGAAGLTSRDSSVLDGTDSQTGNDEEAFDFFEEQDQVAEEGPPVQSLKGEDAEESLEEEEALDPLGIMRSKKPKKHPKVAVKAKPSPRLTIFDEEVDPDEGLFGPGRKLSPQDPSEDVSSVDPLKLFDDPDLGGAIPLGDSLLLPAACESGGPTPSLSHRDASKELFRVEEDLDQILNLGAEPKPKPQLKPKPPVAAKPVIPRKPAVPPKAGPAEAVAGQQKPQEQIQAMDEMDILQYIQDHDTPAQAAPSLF
Description: pull-down.

This note sets out measurements from publication doi:10.1101/2025.07.14.664640 (bioRxiv, 2025).

B1: GST-SH3 (SH3 domain of cortactin fused to GST) (domain or fragment)
chain: not shown
On to B1, for which the binding result was “binds”.
